Results published in US20030055006A1, “Combinations and compositions which interfere with VEGF/VEGF and angiopoietin/tie receptor function and their use” (Schering Aktiengesellschaft, priority 2000, published 2003).

Experiments:
[1] = system: A375v human melanoma xenograft (A375v/pCEP, A375v/sTie2); assay: Tumor growth in A375v human melanoma xenograft model, Example 1 (VEGF receptor kinase inhibitor and/or sTie2); format: in vivo, Swiss nu/nu mice; details: s.c. A375v xenograft; kinase inhibitor 50 mg/kg daily oral; sTie2 expressed by tumor cells; untreated control 24 days
Method: Human melanoma cell line A375v was stably transfected to overexpress the extracellular ligand-neutralizing domain of human Tie2 receptor tyrosine kinase (sTie2; compound II) (Siemeister et al., Cancer Res. 59, 3185-3191, 1999). For control, A375v cells were stably transfected with the empty expression vector (A375v/pCEP). Swiss nu/nu mice were s.c. injected with 1×10^6 transfected A375v/sTie2 or A375v/pCEP tumor cells, respectively. Animals receiving compound I were treated for up to […] with daily oral doses of 50 mg/kg of the VEGF receptor tyrosine kinase inhibitor (4-Chlorophenyl)[4-(4-pyridylmethyl)-phthalazin-1-yl]ammonium hydrogen succinate (Wood et al., Cancer Res. 60, 2178-2189, 2000). Various modes of treatment are described in Table 1. Tumor growth was determined by caliper measurement of the largest diameter and its perpendicular.

[2] = system: Tumors derived from A375v/pCEP cells; assay: Tumor growth in A375v xenograft, Example 4 (VEGF receptor kinase inhibitor and/or scFv-tTF conjugate); format: in vivo, nude mice; details: kinase inhibitor 50 mg/kg daily oral; scFv-tTF conjugate 20 μg i.v. on day 0 and day 4; untreated control approx. 1000 mm^3
Method: (§1) Tumors derived from A375v/pCEP cells were induced in nude mice as described in example 1. Animals receiving compound I were treated for up to 28 days with daily oral doses of 50 mg/kg of the VEGF receptor tyrosine kinase inhibitor (4-Chlorophenyl)[4-(4-pyridylmethyl)-phthalazin-1-yl]ammonium hydrogen succinate (Wood et al., Cancer Res. 60, 2178-2189, 2000). Compound II consists of a single chain antibody (scFv) specifically recognizing the human VEGF-A/VEGF receptor I complex (WO 99/19361) which was expressed in E. coli and conjugated to coagulation-inducing recombinant human truncated tissue factor (tTF) by methods descibed by Ran et al. (Cancer Res. 58, 46464653, 1998). When tumors reached a size of approx. 200 mm^3 animals receiving compound II were treated on day 0 and on day 4 with intravenous doses of 20 μg of the scFv-tTF conjugate. Various modes of treatment are described in Table 4. Animals were sacrificed for ethical reasons when tumors of group 1 exceeded a volume of approx. 1000 mm^3. Tumor growth was determined by caliper measurement of the largest diameter and its perpendicular.

[3] = system: Tumors derived from A375v/pCEP cells; assay: Tumor growth in A375v xenograft, Example 6 (VEGF receptor kinase inhibitor and/or L19 scFv-tTF); format: in vivo, nude mice; details: kinase inhibitor 50 mg/kg daily oral; L19 scFv-tTF single i.v. dose of 20 μg; untreated control approx. 1000 mm^3
Method: Tumors derived from A375v/pCEP cells were induced in nude mice as described in example 1. Animals receiving compound I were treated for up to 28 days with daily oral doses of 50 mg/kg of the VEGF receptor tyrosine kinase inhibitor (4-Chlorophenyl)[4-(4-pyridylmethyl)-phthalazin-1-yl]ammonium hydrogen succinate (Wood et al., Cancer Res. 60, 2178-2189, 2000). Compound II consists of L19 scFv-tTF fusion protein as described in example 5. When tumors reached a size of approx. 200 mm^3 animals receiving compound II were treated with a single intravenous dose of 20 μg of L19 scFv-tTF in 200 μl saline. Various modes of treatment are described in Table 6. Animals were sacrificed for ethical reasons when tumors of -group 1 exceeded a volume of approx. 1000 mm^3. Tumor growth was determined by caliper measurement of the largest diameter and its perpendicular.

[4] = system: Tumors derived from A375v/sTie2 cells and from A375v/pCEP cells; assay: Tumor growth in A375v xenograft, Example 2 (mAb 4301-42-35 and/or sTie2); format: in vivo, nude mice; details: sTie2 expressed by tumor cells; untreated control approx. 1000 mm^3
Method: Tumors derived from A375v/sTie2 cells and from A375v/pCEP cells were induced in nude mice as described in example 1. Animals receiving compound I were treated twice weekly over a period of time of 4 weeks with intraperitoneal doses of 200 μg of the VEGF-A-neutralizing monoclonal antibody (mAb) 4301-42-35 (Schlaeppi et al., J. Cancer Res. Clin. Oncol. 125, 336-342, 1999). Various modes of treatment are descibed in Table 2. Animals were sacrificed for ethical reasons when tumors of group 1 exceeded a volume of approx. 1000 mm^3. Tumor growth was determined by caliper measurement of the largest diameter and its perpendicular.

[5] = system: Tumors derived from A375v/sTie2 cells and from A375v/pCEP cells; assay: Tumor growth in A375v xenograft, Example 3 (scFv-tTF conjugate and/or sTie2); format: in vivo, nude mice; details: sTie2 expressed by tumor cells; untreated control approx. 1000 mm^3
Method: as §1, with “derived from A375v/sTie2 cells and” for “derived”, “A” for “Animals receiving compound I were treated for up to 28 days with daily oral doses of 50 mg/kg of the VEGF receptor tyrosine kinase inhibitor (4-Chlorophenyl)[4-(4-pyridylmethyl)-phthalazin-1-yl]ammonium hydrogen succinate (Wood et al., Cancer Res. 60, 2178-2189, 2000). Compound II consists of a”, “99/19361)” for “99/19361) which”, “4646-4653,” for “46464653,”, “I” for “II”, “3.” for “4.”

[6] = system: Tumors derived from A375v/sTie2 cells and from A375v/pCEP cells; assay: Tumor growth in A375v xenograft, Example 5 (L19 scFv-tTF and/or sTie2); format: in vivo, nude mice; details: sTie2 expressed by tumor cells; untreated control approx. 1000 mm^3
Text: Tumors derived from A375v/sTie2 cells and from A375v/pCEP cells were induced in nude mice as described in example 1. A fusion protein (L19 scFv-tTF) consisting of L19 single chain antibody specifically recognizing the oncofoetal ED-B domain of fibronectin and the extracellular domain of tissue factor was expressed in E. coli as described by Nilsson et al. (Nat. Med., in press). Further, L19 scFv-tTF data have been represented by D. Neri and F. Nilsson (Meeting “Advances in the application of monoclonal antibodies in clinical oncology”, Samos, Greece, 31. May-2. June 2000). When tumors reached a size of approx. 200 mm^3 animals receiving compound I were treated with a single intravenous dose of 20 μg of L19 scFv-tTF in 200 μl saline. Various modes of treatment are described in Table 5. Animals were sacrificed for ethical reasons when tumors of group 1 exceeded a volume of approx. 1000 mm^3. Tumor growth was determined by caliper measurement of the largest diameter and its perpendicular.

Row | Molecule | time for tumors to grow to a size of approx. 250 mm^2 (mean area) [1] | tumor volume within 28 days [2] | tumor volume within 28 days [3] | tumor volume within 28 day [4] | tumor volume within 28 day [5] | tumor volume within 28 day [6]
1 | Clc1ccc(Nc2nnc(Cc3ccncc3)c3ccccc23)cc1.O=C(O)CCC(=O)O [(4-Chlorophenyl)[4-(4-pyridylmethyl)-phthalazin-1-yl]ammonium hydrogen succinate] | 31 days | approx. 550 mm^3 | approx. 550 mm^3 | – | – | –
2 | sTie2: extracellular ligand-neutralizing domain of human Tie2 receptor tyrosine kinase, overexpressed by transfected A375v cells (protein, UniProt Q02763 23-748, looked up, extracellular domain, extracellular ligand-neutralizing domain of human Tie2 receptor tyrosine kinase, overexpressed by transfected A375v cells) extracellular domain: AMDLILINSLPLVSDAETSLTCIASGWRPHEPITIGRDFEALMNQHQDPLEVTQDVTREWAKKVVWKREKASKINGAYFCEGRVRGEAIRIRTMKMRQQASFLPATLTMTVDKGDNVNISFKKVLIKEEDAVIYKNGSFIHSVPRHEVPDILEVHLPHAQPQDAGVYSARYIGGNLFTSAFTRLIVRRCEAQKWGPECNHLCTACMNNGVCHEDTGECICPPGFMGRTCEKACELHTFGRTCKERCSGQEGCKSYVFCLPDPYGCSCATGWKGLQCNEACHPGFYGPDCKLRCSCNNGEMCDRFQGCLCSPGWQGLQCEREGIQRMTPKIVDLPDHIEVNSGKFNPICKASGWPLPTNEEMTLVKPDGTVLHPKDFNHTDHFSVAIFTIHRILPPDSGVWVCSVNTVAGMVEKPFNISVKVLPKPLNAPNVIDTGHNFAVINISSEPYFGDGPIKSKKLLYKPVNHYEAWQHIQVTNEIVTLNYLEPRTEYELCVQLVRRGEGGEGHPGPVRRFTTASIGLPPPRGLNLLPKSQTTLNLTWQPIFPSSEDDFYVEVERRSVQKSDQQNIKVPGNLTSVLLNNLHPREQYVVRARVNTKAQGEWSEDLTAWTLSDILPPQPENIKISNITHSSAVISWTILDGYSISSITIRYKVQGKNEDQHVDVKIKNATITQYQLKGLEPETAYQVDIFAENNIGSSNPAFSHELVTLPESQAPADLGGGKMLL | 31 days | – | – | approx. 600 mm^2 | approx. 600 mm^2 | approx. 600 mm^2
